Experimental findings from article PMC2606918 (Molecular pharmacology, 2008) are described below.

In test [1] the target is T1, D2-IC3ΔNT5 (Rattus norvegicus, UniProt P61169).
T1 sequence (P61169 216-371 limits assumed): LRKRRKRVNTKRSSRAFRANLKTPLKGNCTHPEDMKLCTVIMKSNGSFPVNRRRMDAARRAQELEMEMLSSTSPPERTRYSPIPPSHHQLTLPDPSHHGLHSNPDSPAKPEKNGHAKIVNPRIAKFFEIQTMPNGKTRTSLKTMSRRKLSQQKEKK
The test is described as follows: GST pull-down binding of arrestin3 to D2-IC3ΔNT5. Conditions: versus D2-IC3; 400 ng fusion protein, 100 ng arrestin3.

Test [2] concerns the target T2, GST-D2-IC3 (third intracellular loop of the rat dopamine D2L receptor) (Rattus norvegicus, UniProt P61169).
T2 sequence (P61169 211-371): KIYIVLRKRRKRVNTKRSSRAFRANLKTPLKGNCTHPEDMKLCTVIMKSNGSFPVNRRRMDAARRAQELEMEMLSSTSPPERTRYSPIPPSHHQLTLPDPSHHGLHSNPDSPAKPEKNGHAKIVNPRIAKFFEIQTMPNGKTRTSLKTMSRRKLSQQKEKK
The test is described as follows: GST pull-down binding of purified arrestin to GST-D2-IC3.

Test [3] addresses T3, D2-IC3ΔNT10 (Rattus norvegicus, UniProt P61169).
T3 sequence (P61169 221-371 limits assumed): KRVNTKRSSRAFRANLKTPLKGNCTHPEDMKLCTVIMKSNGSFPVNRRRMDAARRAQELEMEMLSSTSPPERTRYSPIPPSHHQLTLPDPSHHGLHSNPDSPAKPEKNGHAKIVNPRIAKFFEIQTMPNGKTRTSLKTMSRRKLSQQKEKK
The test is described as follows: GST pull-down binding of arrestin3 to D2-IC3ΔNT10. To be noted: versus D2-IC3; 400 ng fusion protein, 100 ng arrestin3.

Test [4] has as its target T4, GST-D3-IC3 (third intracellular loop of the rat dopamine D3 receptor) (Rattus norvegicus, UniProt P19020).
T4 sequence (P19020 210-372): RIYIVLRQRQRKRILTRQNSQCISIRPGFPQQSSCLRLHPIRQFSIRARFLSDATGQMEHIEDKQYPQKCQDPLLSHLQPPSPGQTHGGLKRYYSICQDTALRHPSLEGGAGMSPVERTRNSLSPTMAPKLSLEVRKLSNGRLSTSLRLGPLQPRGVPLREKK
The test is described as follows: GST pull-down binding of purified arrestin to GST-D3-IC3.

In test [5] the target is wild type D2 receptor (Rattus norvegicus, UniProt P61169). Conditions: PTX 50 ng/ml overnight prior to agonist treatment.
Test [6] concerns the target D2-A4 mutant receptor (Rattus norvegicus, UniProt P61169, I212A/I214A/V215A/Y213A). Conditions: PTX 50 ng/ml overnight prior to agonist treatment.
Test [7] concerns the target purified bovine arrestin3 (bovine, UniProt P32120 1-420). The test is described as follows: pull-down.
Where [8] appears, read: amount of arrestin3 bound to 300 ng of GST-IC3.
[9] abbreviates: rate of association, data not shown.
Where [10] appears, read: saturation analysis, 300 ng GST-IC3, 30 min room temperature.

Sequence of purified bovine arrestin3 (P32120 whole entry): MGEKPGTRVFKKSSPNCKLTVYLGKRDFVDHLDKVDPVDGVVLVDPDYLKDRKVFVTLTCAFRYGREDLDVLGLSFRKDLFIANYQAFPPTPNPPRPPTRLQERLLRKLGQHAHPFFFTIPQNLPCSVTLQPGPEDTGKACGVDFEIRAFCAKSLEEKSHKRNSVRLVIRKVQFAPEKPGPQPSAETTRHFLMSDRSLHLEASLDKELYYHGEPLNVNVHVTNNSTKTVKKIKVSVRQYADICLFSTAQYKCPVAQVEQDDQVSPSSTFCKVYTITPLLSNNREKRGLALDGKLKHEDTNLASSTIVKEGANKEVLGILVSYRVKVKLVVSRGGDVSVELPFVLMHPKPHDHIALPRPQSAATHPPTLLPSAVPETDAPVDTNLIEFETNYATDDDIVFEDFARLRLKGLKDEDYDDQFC
Sequence of D2-A4 mutant receptor (P61169 whole entry I212A/Y213A/I214A/V215A): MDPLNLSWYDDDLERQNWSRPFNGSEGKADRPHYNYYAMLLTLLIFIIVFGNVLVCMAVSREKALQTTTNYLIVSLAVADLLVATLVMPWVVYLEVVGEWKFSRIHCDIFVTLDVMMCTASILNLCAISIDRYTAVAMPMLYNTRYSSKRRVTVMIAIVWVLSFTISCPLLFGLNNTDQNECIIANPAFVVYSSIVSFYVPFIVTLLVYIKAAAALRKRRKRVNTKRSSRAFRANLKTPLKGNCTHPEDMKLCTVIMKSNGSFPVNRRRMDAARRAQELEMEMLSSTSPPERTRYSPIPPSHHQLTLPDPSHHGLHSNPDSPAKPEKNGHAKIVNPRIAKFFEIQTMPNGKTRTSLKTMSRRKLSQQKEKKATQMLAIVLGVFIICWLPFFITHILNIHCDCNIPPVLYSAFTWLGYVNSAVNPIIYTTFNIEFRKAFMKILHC
Sequence of wild type D2 receptor (P61169 whole entry): as the sequence (P61169 whole entry I212A/Y213A/I214A/V215A) above, with A212I, A213Y, A214I, A215V counted along it

As a reminder, the Kd is the equilibrium constant for the complex coming apart. Turning to “Arrestin3: purified bovine arrestin3, non-visual arrestin also termed β-arrestin 2”, the “decrease of arrestin binding” value in test [1] and in test [3] was “about 60%” in each case. Further, the values for the Bmax in test [2] (setting [8]) and in test [4] (setting [8]) were 10.1 ± 0.6 ng and 10.2 ± 0.6 ng, respectively. In addition, the half-time for binding result in test [2] (setting [9]) was “approximately 2 min”. The “time at which binding approached equilibrium” value in test [2] (setting [9]) was at most 15 min. Besides, the dissociation constant Kd in test [2] (setting [10]) was 72 ± 14 nM; in test [2] (summary for D2-like receptor IC3 (D2-IC3 and D3-IC3), GST pull-down), 70 to 80 nM; in test [4] (setting [10]), 79 ± 14 nM.

Turning to pertussis toxin [PTX], the “effect of PTX on activation of ERKs” value in test [5] and in test [6] was “greatly decreased” throughout.

For “Arrestin2: purified bovine arrestin2, non-visual arrestin also termed β-arrestin 1”, the “binding of arrestin2” value in test [2] (GST pull-down, in words) was “bound weakly”; in test [4] (GST pull-down, in words), “bound weakly”.

B1: GST-D2-IC3 (GST fusion of the third intracellular loop of the rat dopamine D2L receptor, amino acids 211-371) (domain or fragment, UniProt P61169 211-371, looked up)
chain: KIYIVLRKRRKRVNTKRSSRAFRANLKTPLKGNCTHPEDMKLCTVIMKSNGSFPVNRRRMDAARRAQELEMEMLSSTSPPERTRYSPIPPSHHQLTLPDPSHHGLHSNPDSPAKPEKNGHAKIVNPRIAKFFEIQTMPNGKTRTSLKTMSRRKLSQQKEKK
As to B1, in test [7], binding was characterised by a dissociation constant (Kd) of 72 nM.

B2: GST-D3-IC3 (GST fusion of the third intracellular loop of the rat dopamine D3 receptor, amino acids 210-372) (domain or fragment, UniProt P19020 210-372, looked up)
chain: RIYIVLRQRQRKRILTRQNSQCISIRPGFPQQSSCLRLHPIRQFSIRARFLSDATGQMEHIEDKQYPQKCQDPLLSHLQPPSPGQTHGGLKRYYSICQDTALRHPSLEGGAGMSPVERTRNSLSPTMAPKLSLEVRKLSNGRLSTSLRLGPLQPRGVPLREKK
Molecule B2 showed a dissociation constant (Kd) in test [7] of 79 nM.
